Tests used:
[1] = biological target: 16K hPRL binding sites in human placental membrane fractions (human); assay: specific binding of 100 pM 125I-16K rPRL (counts displaced by 400 nM 16K hPRL), first trimester placental membranes, n=4
[2] = biological target: 16K hPRL binding sites in human placental membrane fractions (human); assay: specific binding of 100 pM 125I-16K rPRL (counts displaced by 400 nM 16K hPRL), third trimester placental membranes, n=3
[3] = biological target: 16K hPRL binding sites in human placental membrane fractions (human); assay: specific binding of 100 pM 125I-16K rPRL (counts displaced by 400 nM 16K hPRL), second trimester placental membranes, n=3
[4] = biological target: 16K hPRL binding sites in human placental membrane fractions (human); assay: Scatchard analysis, radioligand binding, first trimester human placental membranes
[5] = biological target: 16K hPRL binding sites in human placental membrane fractions (human); assay: Scatchard analysis, radioligand binding, third trimester human placental membranes
[6] = biological target: 16K hPRL binding sites in human placental membrane fractions (human); assay: Scatchard analysis, radioligand binding, second trimester human placental membranes

Row | maximal specific binding (cpm/5 µg protein) [1] | maximal specific binding (cpm/5 µg protein) [2] | maximal specific binding (cpm/5 µg protein) [3] | maximal binding (Bmax) (fmol/µg protein) [4] | maximal binding (Bmax) (fmol/µg protein) [5] | maximal binding (Bmax) (fmol/µg protein) [6] | Substance
1 | 357 | 4040 | 1780 | – | – | – | 125I-16K rPRL (rat 16K prolactin, radioiodinated) (from UniProt P01237 30-174) (ligand)
2 | – | – | – | 3.19 | 775 | 630 | 16K N-terminal human prolactin (ligand)

Source: patent US20040077054A1
